Measurements reported in US8481255B2, “Scytovirin domain 1 related polypeptides” (The United States of America, as represented by the …, priority 2005, dated 2013).

B1: scytovirin: antiviral scytovirin polypeptide, SEQ ID NO: 4 (protein, listed as Scytonema varium)
chain: GSGPTYCWNEANNPGGPNRCSNNKQCDGARTCSSSGFCQGTSRKPDPGPKGPTYCWDEAKNPGGPNRCSNSKQCDGARTCSSSGFCQGTAGHAAA

Columns and labels:
HIV-1 gp120 = HIV-1 gp120 (Human immunodeficiency virus type 1 group M subtype B, UniProt P03375); details: 100 ng/well gp120, absorbance at 450 nm
Description: (§1) Briefly, the 100 ng/well of either gp120 and gp41 proteins was bound to a 96-well plate, which was then rinsed with PBS containing 0.05% Tween 20 (TPBS) and blocked with BSA. Between each subsequent step, the plate was again rinsed with TPBS (x3). […] Upon addition of the horseradish peroxidase substrate buffer and color formation, the reaction was stopped by the addition of 2M H2SO4 (after 5 minutes for the gp120 plate and 15 minutes for the gp41 plate) and absorbance was measured at 450 nm for each well.

HIV-1 gp41 ectodomain = HIV-1 gp41 ectodomain (Human immunodeficiency virus type 1 group M subtype B, UniProt P03375); details: 100 ng/well gp41, absorbance at 450 nm
Description: as §1

HIV-1RF = assay: XTT-tetrazolium based anti-HIV assay, acute HIV-1 infection in CEM-SS cells; type: cell-based; details: T-tropic laboratory strain HIV-1RF in CEM-SS cells; read-out: EC50 against HIV-1RF
Description: (§2) The protocol followed was the same as described in Gulakowski et al., J. Virol. Methods, 33: 87-100 (1991).
The deletion mutants were subjected to the XTT-tetrazolium based assay as described in Example 2.

CEM-SS cells = tested on: CEM-SS cells
Description: as §2

HIV gp120 = details: 100 μM sugar or 100 μg/well α-acid glycoprotein; 100 ng/well peptide
Description: (§3) Scytovirnin specifically binds to a α-1-2, α1-2, α1-6-linked tetramannoside, a substructure of oligomannose-8 and -9 found on HIV envelope glycoproteins gp120 and gp41 (Adams et al., Chem. Biol., 11(6): 875-881 (2004)). […] Briefly, a 96-well plate was prepared as described in Example 1 with glycosylated gp120 or gp41 and 100 ng/well of scytovirin or a scytovirin-derived peptide. […] Each well also contained (a) various concentrations of oligomannose-8, (b) 100 μM of glucose, mannose, galactose, xylose, or N-acytylglucosamine, or (c) 100 μg/well α-acid glycoprotein (to act as a carrier for sialic acid). The plate was then washed and visualized using anti-scytovirin polyclonal antibodies as described in Example 1.

gp41 = details: various concentrations of oligomannose-8
Description: as §3

Row | Molecule | binding affinity to gp120 (ELISA) (HIV-1 gp120) | binding affinity to gp41 (ELISA) (HIV-1 gp41 ectodomain) | EC50 (HIV-1RF) | toxicity to the CEM-SS cell line, not detected at concentrations up to (CEM-SS cells) | inhibition of binding to gp120 by glucose, mannose, galactose, xylose, N-acytylglucosamine, α-acid glycoprotein with sialic acid (HIV gp120) | inhibition of binding to gp41 by oligomannose-8 (gp41)
1 | SD1: polypeptide of SEQ ID NO: 1, derived from amino acids 1-48 of scytovirin (scytovirin domain 1) (GSGPTYSWNEANNPGGPNRCSNNKQCDGARTCSSSGFCQGTSRKPDPG) | approximately the same affinity | approximately the same affinity | 6.6 nM | > 10,000 nM | not able to inhibit binding | able to inhibit the binding of SD1 to gp41 in a concentration-dependent manner
2 | B1 | approximately the same affinity | approximately the same affinity | 7.5 nM | > 10,000 nM | – | –
